Data as given in the RNAGym collection of RNA variant scans (doi:10.1073/pnas.2313332121).
This sample holds only a part of the variants without activity.

B1: TPR 5TU (parent)
chain: GGAUCUUCUCGAUCUAACAAAAAAGACAAAUCUGCCACAAAGCUUGAGAGCAUCUUCGGAUGCAGAGGCGGCAGCCUUCGGUGGCGCGAUAGCGCCAACGUUCUCAACUAUGACACGCAAAACGCGUGCUCCGUUGAAUGGAGUUUAUCAUG

Variants of: B1
Experiment: polymerase ribozyme fitness, log enrichment relative to wild type (log ratio); higher = more active; in vitro selection for triplet polymerase activity
Procedure, shortened: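 Genotype fitness is the logarithm of its enrichment divided by wild-type enrichment, using inverse-variance-weighted averages of replicates. That logarithm is base 2. Enrichment was measured by Illumina sequencing of input and output libraries from one triplicate in vitro selection round, with frozen incubation at −7 °C, on PCR-built, transcribed mutant libraries of each subunit of a heterodimeric triplet polymerase ribozyme, retaining genotypes with ≥10 input reads and ≥1 read per output.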

| Variant | polymerase ribozyme fitness (log ratio) |
| --- | --- |
| GGAUCUUCUCGAUCUAACAAAAAUGACAAAUCUGCCACAAAGCUUGAGAGCAUCUUCGGAUGCAGAGGCGGCAGCCUUCGGUGGCGCGAUAGCGCCAACGUUCUCAACUAUGACACGCAAAACGCGUGCUUCGUUGAAUGGAGUUUAUCAUG | 2.4 |
| GGAUCUUCUCGAUCUAACAAAAAUAACAAAUCUGCCACGAAGCUUGAGAGCAUCUUCGGUUGCAGAGGCGGCAGCCUUCGGUCGCGCGAUAGCGCCAACGUUCUCAACUAUGACACGCAAAACGCGUGCUCCGUUGAAUGGAGUUUAUCAUG | ≤ -4.2 |
| GGAUCUUCUCGAUCUAACAAAAAUGACAAAUCUGCCACAAAGCUUGAGAGCAUCUUCGGAUGCAGAGGCGGCAGCCUUCGGUGGCGCGAUAGUGCCAACGUUCUCAACUAUGACACGCAAAACGCGUGCUCCGUUAAAUGGAGUUUAUCAUG | -1.47 |
| GGAUCUUCUCGAUCUAACAAAAAUGACAAAUCUACCACAAAGCUUGAGAGCAUCUUCGGAUGCAGAGGCGGCAGCCUUCGGUGGCGCGAUACCGCCAACGUUCUCAACUAUGACACGCAAAACGCGUGCUCCGUUGGAUGGAGUUUAUCAUG | -4.07 |
| GGAUCUUCUCGAUCUAACAAAAAUGACAAAUCUGCCACAAAACUUGAGAGCAUCUUCGGAUGCAGAGGCGGCAGCCUUCGGUGGCGCGAUAGCGCCAACGUUCUCAAUUAUGACACGCAAAACGCGUGCUCCGUUGAAUGGAGUUUAUCAUG | 1.52 |
| GGAUCUUCUCGAUCUAACAAAAAUCACGAGUCUGCCACAAAGCUUGAGUGCAUCUUCGGAUGCAGAGGCGGCAGCCUUCGGUAGCGAGAUAGCGCCAACGUUCUCAACUAUGACACGCAAAACGCGUGCUCCGUUGAAUGGAGUUUAUCAUG | ≤ -4.2 |
| GGAUCUUCUCGAUCUAACAAAAAUGACAAAUCUGCCACAAAGCUUGAGAGCAUCUUCGGAUGCAGAGGCGGCAGCCUUCGGUGGCGCGAUAGCGCCAACGUUCUCAACUAUGACACGCAAAACGAGUGCUCCGUUGAAUGGAGUUUAUCAUG | -0.572 |
| GGAUCUUCUCGAUCUAACAAAAAUGACAAAUCUGCCACAAAGCUUGAGAGCAUCUUCGGAUGCAGAGGCGGCAGCCUUCGGUGGCGCGAUAGUGCCAACGUUCUCAACUAUGACACGCAAAACGCGUGCUCCGUUGAAUGGCGUUUAUCAUG | -2.21 |
| GGAUCUUCUCGAUCUAACAAAAAUGACAAAUCUGCCACAAAGCUUGAGAGCAUCUUCGGAUGCAGAGGCGGCAGCCUUCGGUGGCGCGAUAGCGCGAACGUUCUCAACUAUGACACGCAAAACGCGUGCUCCGUUGAAUGGAGUUUAUCAUG | -0.301 |
| GGAUCUUCUCGAUCUAACAAAAAUGACAAAUCUGCCACAAAGCUUGAGAGCAUCUUCGGAUGCAGAGGCGGCAGCCUUCGGUGGCGCGAUAGCGCUAACGUUCUCAACUAUGACACGCAAAACGCGUGCUCCGUUGAAUGGAGUUUAUCAUG | 0.0587 |
| GGAUCUUCUCGAUCUAACAAAAAUGACAAAUCUGCCACAAAGCUUGAGAGCAUCUUCGGAUGCAGAGGCGGCAGCCUUCGGUGGCGCGAUAGCGCCAACGUUCUCAACUAUGACACGCAAAACGCGUGCUCCGUUGAAUGGAGUUUAUGAUG | -3.88 |
| GGAUCUUCUCGAUCUAACAAAAAUGACAAAUCUGCCACAAACCUUGAGAGCAUCUUCGGAUGCAGAGGCGGCAGCCUUCGGUGACGCGAUAGUCCCAAAGUUCUCAACUAUGACACGCAAAGCGCGUGCUCCGUUGAAUGGAGUUUAUCAUG | ≤ -4.2 |
| GGAUCUUCUCGAUCUAACAAAAAUGACAAAUCUGCCACAAAGCUUGAGAGCAUCUUCAGAUGCAGUGGCGGCAGCCUUCGGUGGCGAGAGAGCGCCAACGUUCUCAACUAUGACACGCAAAACGCGUGCUCCGUUGAAUGGAGUUCAUCAUG | ≤ -4.2 |
| GGAUCUUCUCGAUCUAACAAAAAUGACAAAUCUGCCACAAAGCUUGAGAGCAUCUUCGGAUGCAGAGGCGGCAGCCUUCGGUGGCGCGAUAGCGCAAACGUUCUCAACUAUGACACGCAAAACGCGUGCUCCGUUGAAUGGAGUAUAUCAUG | 0.748 |
| GGAUCUUCUCGAUCUAACAAAAAUGACAAAUCUGCCACAAAGCUUCAGAGCAUCUUCGGAUGCAGAGGCGGCGGCCUUCGGUGGCGUGAUACCGCCAACGUUCUCAACUAUGACACGCAAAACGCGUGCUCCGUUGAAUGGAGUUUAUCAUG | -3.37 |
| GGAUCUUCUCGAUCUAACAAAAAUGACAAAUCUGCCACAAAGCUUGAGAACAUCUUCGGAUGCAGAGGCGGCAGCCUUCGGUGGCGCGAUAGCGCCAACGUUCUCAAGUAUGACACGCAAAACGAGUGCUCCGUUGAAUGCAGUUUAUCAUG | ≤ -4.2 |
| GGAUCUUCUCGAUCUAACAAAAAUGACAAAUCUGCCACAAAGCUUGAGAGCAUCUUCGGAUGCAGAGGCGGCAGCCUUCGGUGGCGCGAUAGCGCUAACGUUCUCAACUAUGACACACAAAACGCGUGCUCCAUUGAAUGGAGUAUAUCAUG | ≤ -4.2 |
| GGAUCUUCUCGAUCUAACAAAAAUGACAAAUCUUCCACAAAGCUUGCGAGCAUCUUCGGAUGCAGAGGCGGCAGCCUUCGGUGGCGCGAUAGCGGCAACGUUCUCAAAUGUGACACGCAAAACGCGUGCUCCGUUGACUGGAGUUUCUCAUA | ≤ -4.2 |
| GGAUCUUCUCGAUCUAACAAAAAUGACAAAUCUUCCACAAAACUUGAGAGCAUCGUCGGAUGCAGAGGCGGCAGCCUUCGGUGGCGCGAUCGCACCAACGUUCUCAACUAUGACACGCAAAACGCGUGCUCCGUUGAAUGGAGUUUAUCAUG | -3.62 |
